Reference: the RNAGym collection of RNA variant scans (doi:10.1073/pnas.2313332121)

B1: TPR t1 (parent)
chain: GACCAAUCUGCCCUCAGAGCUCGAGAACAUCUUCGGAUGCAGAGGAGGCAGGCUUCGGUGGCGCGAUAGCGCCAACGUCCUCAACCUCCAAUGCAUCCCACCACAUGAUGAUGCCUGAAGAGCCUUGGUUUUUUG

Variants of: B1
Assay: polymerase ribozyme fitness, log enrichment relative to wild type (log ratio); higher = more active; in vitro selection for triplet polymerase activity
Outline: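 Genotype fitness is the logarithm of its enrichment divided by wild-type enrichment, using inverse-variance-weighted averages of replicates. That logarithm is base 2. Enrichment was measured by Illumina sequencing of input and output libraries from one triplicate in vitro selection round, with frozen incubation at −7 °C, on PCR-built, transcribed mutant libraries of each subunit of a heterodimeric triplet polymerase ribozyme, retaining genotypes with ≥10 input reads and ≥1 read per output.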

Variant | polymerase ribozyme fitness (log ratio)
G71A A84U | -1.02
A121G U131A | 2.42
G47A C49U G63C | -1.35
G10A U54G G71C C102U A111U U129G | -5.93
A83U A100U C123U U125G | 0.186
C8G C49A G71U U92A C123U | -2.6
A2G G57A G61A G117U | -3.55
C15U U59G C70U C104A | -4.32
A50G G71C G113U U126A | -6
A68U C102A | -6.73
G42A C70U G117A | -4.31
A41U A43U G113A C124A | -1.71
C70U A74G | -1.83
C11A G113U | -3.17
G47C C98U C124G | -0.238
G52A C64G C88G G120U | -6.36
C64G G113A | -6.17
G47U C72G A90G | -1.68
G71C G93C | -1.98
C12A A43G C70A U81A G120U | -5.53
A26G U32C G60A C64U | -5.28
C12G U78C A111U | -3.23
C56U C73G A90U | -3.53
C3A C102U A121G | -0.526

Variant | polymerase ribozyme fitness (log ratio)
A18U G35U U54G C88A U112A | -7.02
C12U A41U A66U | -2.82
G44C U55A A103U U130A | -5.8
C22G A29C C89A G120C | -6.79
U7C G60A C89G U130G | -1.83
C11U C40U | -0.173
C72U C102A C123G | -0.477
G19A G120A | -2.6
G36U G77C A91U | -4.63
C53G G113U | -2.22
C8U C13G G69A C72A | -4.71
C70U C86U | -1.4
U30C G36C C70G U78C A84C U112G | -6.17
G44A A95C | -1.35
A26C G47C C88A C102G A105C C123A | -7.85
A27U C72A C94A | -4.07
C13G G120A | -0.711
C31G C114A | -6.73
G36U G77A G113U | -3.33
G10U C115A | -0.281
U38C C123A | -0.222
G48C C49A G128A | -3.09
U38G U54C C56U G61U A111U | -5.38
A118U C123A U130C | -0.0514

Variant | polymerase ribozyme fitness (log ratio)
A43C G61A | -2.52
A121C G128U | 0.545
A2G C49U C79A C86G | -2.96
C72A U87G | 0.194
C62A A75G G93A | -2.34
G17U G51A A121U | -3.76
C13G C56G C88A G110C | -5.35
C8A A18C | -1.93
A18U A43G | -1.5
A5U U14G A41U G60C C115U | -4.57
C34A G63A | -4.65
C40G A46G G61C C85U | -6.04
C12A G45A C85A | -3.04
C8U G47A | -0.477
C13U A84U | -0.00977
C62U G113C | -2.79
C31A U106G G107U | -1.91
A41G C73G G93C | -2.94
C49U G107A | -3.94
G47U U54G C104U | -1.47
U9A G36A A119G | 0.68
C12A A37G U55G | -0.496
G10A C40G | -0.282
C20G C56G A95C G117U C124A | -3.93

Variant | polymerase ribozyme fitness (log ratio)
U7C U116C | 0.603
C53G U78C C114U U132A | -2.19
C11A G71C U125G G135U | -3.28
A37U A74U A121C | 1.55
U9G G61A C76G | -4.18
G45C C53U G63C U116G | -3.05
G19U U59G U106G U112A | -2.43
G60C G117C | -4.28
G10A G60A C82A C94U C123A | 1.22
C13G G52C G71A | -3.97
C12U C62U U92C | -1.06
C8A A24C C31U U38A G45U C56G C70G C80A A111U G117C | -6.01
C8G C11U U59A C62A G63U | -5.8
C8G G36U A119G U133G | 0.386
C28U C73U | -1.11
C12U G69U G77A | 0.767
C53U G63A G113U | -5.15
G47U C64A | -6.47
A37U C49G U55A C104A | -1.38
G58A C89G | -2.2
C8G C15G U21C G36A C82U U112A | -1.27
C11G C13A | -2.58
G42A G44C G47C C97U G120U U130C | -3.09
A27C C72G U81C | -4.5

Variant | polymerase ribozyme fitness (log ratio)
C40A C94G C97U G113U | -7.66
C56A G71U U81G A111C A119G G135A | -4.66
G48U C86A A91C | -1.98
C40A G42U C56A | -2.35
C11G A121G G127U | 0.00144
C49U G63C G93C C124U | -0.998
U55G C56U | -0.601
A6U G48U C72A | 0.271
G77U G113A G135A | -1.34
U9G C72U | 0.16
C28G A29G G42U G44A A83U C124U | -7.08
G39A C89G C101U | -1.85
C53A C79A G117U | -4.98
C8U C11U G19A C73A A74C C86A | -3.7
A41G U81A G117U | -5.27
U14G A91C C97U | -4.05
G36U A84C G110A | -2.43
C15A U59A | -2.31
A6C C76U C101G G122A C124U U129A | -2.42
G65U C70U | -5.58
A5G A83G G110A | -2.14
G17C C73A U125A | -5.15
U9G A29G G42U | -2.93
G23U G117A | -6.33

Variant | polymerase ribozyme fitness (log ratio)
A46U C64U | -2.1
U9A G71A | 0.174
U9C G107U U112A A119G | -4.69
C13U U55G C72G A100C A111U | -4.67
G48U C62U | -0.185
C80A U81C | -4.02
A50C U87G C98U | -0.87
C64A G65A C97U G120A | -5.01
C8A C34G G117C | -6.88
C13G C99U | -4.01
C12U G47U | -0.627
G57A C97U | -1.83
C73A C115G | -2.61
A5U C56G | -1.04
G44A U55A C85G G113A | -3.2
C40U G61C U129A | -3.93
A6U G63A | -0.932
C11G U109A G110C | -4.59
G36A G57A C80U U112C C114A A119U G122U | -5.44
C13U G47C | -1.18
G61C U131A | -2.31
A27G A74G C115A | -4.15
C11A U38G C56U A90U | -3.35
A26G C82U C124A G127C U133C G135U | -4.09

Variant | polymerase ribozyme fitness (log ratio)
A103G U112C | -3.53
G48A G60U C115U | -0.887
U21C G69A C104U | -2.28
G61A A84U G93C G128A | -3.36
C20U G44A G45U | -3.42
C20A G23C U33C C62U U106A A108C G117C | -8.64
G44U G47U C49U C72A A74G U96G U132A | -5.92
A41U U112C | 0.631
C8A U30A A46C U106C C123U | -5.15
C15U G60A G128A | -2.6
G63A G110C | -5.57
C4A G69U U106C C124U | -1.05
C53G A105C | -2.81
A6U C8G G17A G48C C53A U126C | -4.16
C34G A91G C114A U132A | -6.48
G23A C49A | -5.5
A29G G120A | -1.03
C15U G48U A103C C123G | -6.34
C28U G93U U112C | -1.92
C8G A16G A41G | 0.487
U9A G48U C64U C72A | 0.0767
A5U U33G C76A C80A A83C G113U A119U | -6.4
A6G G36A | -0.889
